Source: patent publication US20140302075A1

Target: human TLR4 receptor (expressed on HEK-Blue TLR4 reporter cells) (human) (UniProt O00206)
Test: cell-based or functional assay

Chain of UniProt O00206 (O00206 24-839): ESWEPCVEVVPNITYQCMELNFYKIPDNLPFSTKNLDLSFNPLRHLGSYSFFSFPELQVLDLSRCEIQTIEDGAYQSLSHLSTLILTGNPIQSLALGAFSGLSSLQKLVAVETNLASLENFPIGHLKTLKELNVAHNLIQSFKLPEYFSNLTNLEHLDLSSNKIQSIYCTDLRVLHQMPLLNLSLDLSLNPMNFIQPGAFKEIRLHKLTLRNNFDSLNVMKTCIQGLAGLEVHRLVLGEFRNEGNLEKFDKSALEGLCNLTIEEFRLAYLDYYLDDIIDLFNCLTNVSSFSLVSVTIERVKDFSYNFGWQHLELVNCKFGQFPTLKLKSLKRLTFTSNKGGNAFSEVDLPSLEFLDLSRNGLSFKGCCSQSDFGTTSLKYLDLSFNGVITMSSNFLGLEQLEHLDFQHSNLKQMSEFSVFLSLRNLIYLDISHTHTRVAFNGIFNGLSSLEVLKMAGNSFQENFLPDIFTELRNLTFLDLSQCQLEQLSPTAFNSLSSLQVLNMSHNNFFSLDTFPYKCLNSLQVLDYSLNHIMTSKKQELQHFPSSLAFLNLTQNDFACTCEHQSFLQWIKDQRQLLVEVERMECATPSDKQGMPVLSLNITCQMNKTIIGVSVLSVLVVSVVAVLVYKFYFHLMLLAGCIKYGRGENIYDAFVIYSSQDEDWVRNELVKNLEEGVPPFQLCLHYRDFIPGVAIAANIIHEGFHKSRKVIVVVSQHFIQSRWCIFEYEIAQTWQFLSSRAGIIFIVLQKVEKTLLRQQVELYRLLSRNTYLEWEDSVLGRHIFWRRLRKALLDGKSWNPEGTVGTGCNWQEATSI

Fold increase in activity over AspRS1^N1 (TLR4 Activity; SEAP reporter, HEK-Blue TLR4 cells): 3.6 fold
Substance: AspRS1^N1 (C76S) (amino acids 1-154 of human aspartyl-tRNA synthetase with Cys76 to Ser, C-terminal V5His tag) (ligand)
